Results from patent US20200268901A1 (Bristol-Myers Squibb, published 2020).
“And” between values parts separate entries of the source, which are not always exact repeats. Identical values can stand only once. Like-named read-outs stand apart in the source and are kept apart here.

T1: hCD73-his (full length extracellular domain of human CD73, residues 26-546, C-terminal polyhistidine tag) (human, UniProt P21589 26-546)
T1 construct: range 26-546; not shown: C-terminal polyhistidine tag
T1 sequence (looked up): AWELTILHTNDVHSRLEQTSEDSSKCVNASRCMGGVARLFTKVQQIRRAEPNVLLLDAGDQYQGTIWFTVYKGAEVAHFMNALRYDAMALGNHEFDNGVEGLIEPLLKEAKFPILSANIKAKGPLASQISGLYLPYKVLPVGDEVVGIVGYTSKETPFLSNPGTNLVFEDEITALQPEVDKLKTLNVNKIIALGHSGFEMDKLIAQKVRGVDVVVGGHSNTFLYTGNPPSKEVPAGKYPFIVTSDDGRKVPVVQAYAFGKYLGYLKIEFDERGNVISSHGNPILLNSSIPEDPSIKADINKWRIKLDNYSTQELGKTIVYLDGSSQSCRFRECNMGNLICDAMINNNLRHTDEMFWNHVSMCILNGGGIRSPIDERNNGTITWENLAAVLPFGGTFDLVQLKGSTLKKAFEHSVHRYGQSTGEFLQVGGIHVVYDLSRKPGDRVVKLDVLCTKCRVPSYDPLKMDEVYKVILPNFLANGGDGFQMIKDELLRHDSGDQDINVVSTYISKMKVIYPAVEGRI

T2: human CD73 on Calu6 cells (human, UniProt P21589 27-549)
T2 sequence (looked up): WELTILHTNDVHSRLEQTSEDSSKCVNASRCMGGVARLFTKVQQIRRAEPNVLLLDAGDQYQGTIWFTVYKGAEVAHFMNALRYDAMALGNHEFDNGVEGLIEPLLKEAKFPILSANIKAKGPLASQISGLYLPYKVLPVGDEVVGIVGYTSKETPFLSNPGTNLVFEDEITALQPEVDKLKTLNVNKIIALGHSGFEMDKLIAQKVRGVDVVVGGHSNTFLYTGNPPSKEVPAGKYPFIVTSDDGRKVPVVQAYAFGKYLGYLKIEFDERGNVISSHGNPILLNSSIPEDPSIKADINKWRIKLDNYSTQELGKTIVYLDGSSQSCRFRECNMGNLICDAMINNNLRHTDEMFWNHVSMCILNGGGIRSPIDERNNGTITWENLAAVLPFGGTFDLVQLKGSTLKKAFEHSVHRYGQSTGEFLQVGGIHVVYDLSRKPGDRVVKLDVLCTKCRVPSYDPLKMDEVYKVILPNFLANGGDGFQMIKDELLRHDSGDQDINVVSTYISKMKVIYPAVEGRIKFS

T3: human GITR on cells (activated human T cells; 3A9-hGITR cells) (human, UniProt Q9Y5U5 26-241)
T3 sequence (looked up): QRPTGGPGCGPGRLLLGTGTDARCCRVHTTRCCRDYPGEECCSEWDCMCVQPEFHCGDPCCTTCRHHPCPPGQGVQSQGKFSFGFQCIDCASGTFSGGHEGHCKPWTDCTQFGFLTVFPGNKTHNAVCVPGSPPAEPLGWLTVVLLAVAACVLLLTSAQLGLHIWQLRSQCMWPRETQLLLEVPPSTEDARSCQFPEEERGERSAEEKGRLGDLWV


Legend:
[1] = biological target: T1, hCD73-his (full length extracellular …); test: SEC, 5.5 uM each; peak 2: about 2:2 complexes
Description: (§1) The oligomeric state of CD73/antibody complexes were examined by size-exclusion chromatography coupled to an in-line multi-angle light scattering detector (SEC-MALS). Isocratic separations were performed on a Shodex PROTEIN KW-803 column connected to an Prominence Shimadzu UFLC in buffer containing 200 mM K₂HPO₄, 150 mM NaCl, pH 6.8, containing 0.02% Na azide (0.1 μm filtered) running at 0.5 mL/min. Samples were injected onto the column using a SIL-20AC Prominence Shimadzu autosampler, and data were obtained from three online detectors connected in series: a Prominence SPD-20AD diode array UV/vis spectrophotometer followed by a Wyatt miniDAWN™ TREOS Multi-Angle Light Scattering Detector then a Wyatt Optilab T-rEX Refractive Index Detector. Data were collected and analyzed using Astra (Wyatt) and Labsolutions (Shimadzu) software.
(§2) CD73.4 antibodies having the heavy chain constant regions set forth in Table 14 were also tested for formation of high molecular weight complexes by SEC-MALS and DLS experiments, as described in Example 3.

[2] = biological target: T2, human CD73 on Calu6 cells; test: cell-based or functional assay
[3] = biological target: T1, hCD73-his (full length extracellular …); test: SEC, 5.5 uM each; peak 1: complexes larger than 4:4
Description: as §1, §2

[4] = biological target: T3, human GITR on cells (activated human T …); test: cell-based or functional assay
[5] = biological target: T1, hCD73-his (full length extracellular …); test: SEC, 5.5 uM each; peak 4: free mAb
Description: as §1, with “Isocratic” for “The oligomeric state of CD73/antibody complexes were examined by size-exclusion chromatography coupled to an in-line multi-angle light scattering detector (SEC-MALS). Isocratic”
as §2

[6] = biological target: T2, human CD73 on Calu6 cells; test: cell-based or functional assay; remark: listed apart in the source
[7] = biological target: T1, hCD73-his (full length extracellular …); test: SEC, 5.5 uM each; peak 3: about 1:1 complexes
Description: as §1, §2

[8] = biological target: T2, human CD73 on Calu6 cells; test: cell-based or functional assay; remark: listed apart in the source

| Binder | UV % Peak2 (12.9-15.1 min) [1] | T1/2 (hr) of CD73 internalization, Calu6 cells [2] | T1/2 (hr) of CD73 internalization, NCI-H292 cells [2] | Ymax (%) of CD73 internalization, Calu6 cells [2] | Ymax (%) of CD73 internalization, NCI-H292 cells [2] | UV % Peak1 (<12.9 min) [3] | UV % Peak4 (16.7-19.3 min) [5] | other results |
| --- | --- | --- | --- | --- | --- | --- | --- | --- |
| CD73.4-IgG2.3G1-KH (antibody) heavy: QVQLVESGGGVVQPGRSLRLSCAASGFTFSNYGMHWVRQAPGKGLEWVAVILYDGSNKYYPDSVKGRFTISRDNSKNTLYLQMNSLRAEDTAVYYCARGGSSWYPDSFDIWGQGTMVTVSSASTKGPSVFPLAPCSRSTSESTAALGCLVKDYFPEPVTVSWNSGALTSGVHTFPAVLQSSGLYSLSSVVTVPSSNFGTQTYTCNVDHKPSNTKVDKTVERKSCVECPPCPAPPVAGPSVFLFPPKPKDTLMISRTPEVTCVVVDVSHEDPEVKFNWYVDGVEVHNAKTKPREEQYNSTYRVVSVLTVLHQDWLNGKEYKCKVSNKALPAPIEKTISKAKGQPREPQVYTLPPSREEMTKNQVSLTCLVKGFYPSDIAVEWESNGQPENNYKTTPPVLDSDGSFFLYSKLTVDKSRWQQGNVFSCSVMHEALHNHYTQKSLSLSPGK light: not shown | 23.4% | 0.396 h | 0.28 h | 81.6% | 91.6% | 34.9% | – | – |
| anti-GITR-IgG2 (antibody) heavy: QVQLVESGGGVVQPGRSLRLSCAASGFTFSSYGMHWVRQAPGKGLEWVAVIWYEGSNKYYADSVKGRFTISRDNSKNTLYLQMNSLRAEDTAVYYCARGGSMVRGDYYYGMDVWGQGTTVTVSSASTKGPSVFPLAPCSRSTSESTAALGCLVKDYFPEPVTVSWNSGALTSGVHTFPAVLQSSGLYSLSSVVTVPSSNFGTQTYTCNVDHKPSNTKVDKTVERKCCVECPPCPAPPVAGPSVFLFPPKPKDTLMISRTPEVTCVVVDVSHEDPEVQFNWYVDGVEVHNAKTKPREEQFNSTFRVVSVLTVVHQDWLNGKEYKCKVSNKGLPAPIEKTISKTKGQPREPQVYTLPPSREEMTKNQVSLTCLVKGFYPSDIAVEWESNGQPENNYKTTPPMLDSDGSFFLYSKLTVDKSRWQQGNVFSCSVMHEALHNHYTQKSLSLSPGK light: not shown | – | – | – | – | – | – | – | EC50 (nM), phospho-p65 NFkB signaling, CD4+ T cells [4]: 12.8 nM; EC50 (nM), phospho-p65 NFkB signaling, CD8+ T cells [4]: 9 nM; Emax (%), phospho-p65 NFkB signaling, CD4+ T cells [4]: 69%; Emax (%), phospho-p65 NFkB signaling, CD8+ T cells [4]: 85% |
| CD73.4-IgG2.3-plusTHT (antibody) heavy: QVQLVESGGGVVQPGRSLRLSCAASGFTFSNYGMHWVRQAPGKGLEWVAVILYDGSNKYYPDSVKGRFTISRDNSKNTLYLQMNSLRAEDTAVYYCARGGSSWYPDSFDIWGQGTMVTVSSASTKGPSVFPLAPCSRSTSESTAALGCLVKDYFPEPVTVSWNSGALTSGVHTFPAVLQSSGLYSLSSVVTVPSSNFGTQTYTCNVDHKPSNTKVDKTVERKSCVETHTCPPCPAPPVAGPSVFLFPPKPKDTLMISRTPEVTCVVVDVSHEDPEVQFNWYVDGVEVHNAKTKPREEQFNSTFRVVSVLTVVHQDWLNGKEYKCKVSNKGLPAPIEKTISKTKGQPREPQVYTLPPSREEMTKNQVSLTCLVKGFYPSDIAVEWESNGQPENNYKTTPPMLDSDGSFFLYSKLTVDKSRWQQGNVFSCSVMHEALHNHYTQKSLSLSPGK light: not shown | – | 0.355 h | 0.293 h | 81.2% | 91.4% | 30.6% | 33.7% | – |
| CD73.4-IgG2.3-plusGGG (antibody) heavy: QVQLVESGGGVVQPGRSLRLSCAASGFTFSNYGMHWVRQAPGKGLEWVAVILYDGSNKYYPDSVKGRFTISRDNSKNTLYLQMNSLRAEDTAVYYCARGGSSWYPDSFDIWGQGTMVTVSSASTKGPSVFPLAPCSRSTSESTAALGCLVKDYFPEPVTVSWNSGALTSGVHTFPAVLQSSGLYSLSSVVTVPSSNFGTQTYTCNVDHKPSNTKVDKTVERKSCVEGGGCPPCPAPPVAGPSVFLFPPKPKDTLMISRTPEVTCVVVDVSHEDPEVQFNWYVDGVEVHNAKTKPREEQFNSTFRVVSVLTVVHQDWLNGKEYKCKVSNKGLPAPIEKTISKTKGQPREPQVYTLPPSREEMTKNQVSLTCLVKGFYPSDIAVEWESNGQPENNYKTTPPMLDSDGSFFLYSKLTVDKSRWQQGNVFSCSVMHEALHNHYTQKSLSLSPGK light: not shown | 23.9% | 0.336 h | 0.271 h | 81.7% | 91.6% | 30% | 34.9% | – |
| CD73.4-IgG2-C219S (antibody, anti-CD73; also called CD73.4-IgG2.3; CD73.4-IgG2CS) heavy: QVQLVESGGGVVQPGRSLRLSCAASGFTFSNYGMHWVRQAPGKGLEWVAVILYDGSNKYYPDSVKGRFTISRDNSKNTLYLQMNSLRAEDTAVYYCARGGSSWYPDSFDIWGQGTMVTVSSASTKGPSVFPLAPCSRSTSESTAALGCLVKDYFPEPVTVSWNSGALTSGVHTFPAVLQSSGLYSLSSVVTVPSSNFGTQTYTCNVDHKPSNTKVDKTVERKSCVECPPCPAPPVAGPSVFLFPPKPKDTLMISRTPEVTCVVVDVSHEDPEVQFNWYVDGVEVHNAKTKPREEQFNSTFRVVSVLTVVHQDWLNGKEYKCKVSNKGLPAPIEKTISKTKGQPREPQVYTLPPSREEMTKNQVSLTCLVKGFYPSDIAVEWESNGQPENNYKTTPPMLDSDGSFFLYSKLTVDKSRWQQGNVFSCSVMHEALHNHYTQKSLSLSPG light: not shown | – | 0.372 h and 0.364 h | 0.287 h and 0.284 h | – | – | 37% | 28.6% | % internalization, Calu6 cells [6]: 88%; % internalization, H228 cells [6]: 94%; % internalization, H2030 cells [6]: 89%; % internalization, HCC15 cells [6]: 94%; T1/2 min of internalization, Calu6 cells [6]: 6.5 min; T1/2 min of internalization, H228 cells [6]: 13.8 min; T1/2 min of internalization, H2030 cells [6]: 3.7 min; T1/2 min of internalization, HCC15 cells [6]: 3.1 min; UV % Peak3 (15.1-16.7 min) [7]: 7.7%; T1/2 (hr) of CD73 internalization, Calu6 cells [8]: 0.6 h; T1/2 (hr) of CD73 internalization, NCI-H292 cells [8]: 0.277 h; Ymax (%) of CD73 internalization, Calu6 cells [8]: 75.6%; Ymax (%) of CD73 internalization, NCI-H292 cells [8]: 78.4% |
